One molecule from patent US8648039B2, “Use of alpha-lactalbumin for regulations of glycemia” (Compagnie Laitiere Europeene, priority 2006, dated 2014) can be followed below.

Assay [1] concerns IRS1 (insulin receptor substrate 1) protein. The assay is described as follows: Activation of the insulin signaling pathway (IRS1 immunoprecipitation, Western blotting) at 6 weeks. The settings on record: muscle; 6 weeks of diet. Type of assay: in vivo, male rats of the Wistar Hannover strain. Here is the method:
Four groups of 8 male rats of the Wistar Hannover strain were subjected for 6 weeks to the same sucrose-containing diets as those used in experiments 2 and 3 (P14 containing sucrose, C1, C2 and alphalac). An additional group of 8 rats, this being a non-sucrose control group, fed with a diet P14 containing 14 energy % of total milk proteins without sucrose, was added. This group constitutes the “normal” or “healthy” positive control in the evaluation of the insulin signaling pathway modifications related to the high-sucrose diet.
At 6 weeks, the anesthetized rats receive a dose of 0.750 mU.kg^−1 of insulin, directly injected into the vena cava. This injection makes it possible to light up the insulin signaling pathway and to evaluate the differences in activation between the various groups. 5 min after the injection, the muscle and the liver are removed, ground in a lysis buffer and directly immunoprecipitated with an antibody which recognizes the IRS1 (insulin receptor substrate 1) protein. The immunoprecipitated samples are then loaded onto a gel and then blotted onto a membrane (Western blotting technique). The membranes are successively hybridized with an antiphosphotyrosine antibody (tyrosine phosphorylation of the IRS protein is the first step in the insulin signaling pathway) and then an anti-total IRS1 antibody (FIG. 10).

Assay [2] relates to male rats of the Wistar Hannover strain. The assay is described as follows: Postprandial glycemia with glutathione synthesis inhibited by buthionine sulfoximine. Format: in vivo. The settings on record: buthionine sulfoximine injected one hour before the meal; acute. Here is the method:
In order to confirm the role of glutathione in the regulation of glycemia and the advantage of α-lactalbumin as a cysteine source from the viewpoint of synthesis of this compound, we used a glutathione-depleted rat model, by inhibiting the synthesis of this compound with buthionine sulfoximine treatment. In these animals, glucose tolerance and insulin sensitivity were measured, and also various parameters related to the oxidative stress state. The replenishing of glutathione stores and the change in the regulation of glycemia were measured in response to diets with various levels of enrichment in α-lactalbumin and cysteine supplementation.
The methodology of example 2, limited to the acute part of the study, was repeated. Four groups of 10 male rats of the Wistar Hannover strain were operated on, after their reception, in order to put in place a venous catheter. This catheter is introduced via the left jugular, descended to the level of the vena cava, and its proximal part interconnects at the cranial level, where it is secured in place so as to allow blood samples to be taken, in the desired amount, from a conscious animal.
One week later, the rats were divided up into 4 groups subjected to the sucrose-rich normal protein meals C0, C1, C2 and alphalac. An injection of buthionine sulfoximine, a […], was given beforehand (one hour before the meal). […]

B1: α-lactalbumin (protein, UniProt P00711 20-142, looked up)
Alpha-lactalbumin: EQLTKCEVFRELKDLKGYGGVSLPEWVCTTFHTSGYDTQAIVQNNDSTEYGLFQINNKIWCKDDQNPHSSNICNISCDKFLDDDLTDDIMCVKKILDKVGINYWLAHKALCSEKLDQWLCEKL
notes: milk serum protein; bovine form 14.2 kD, 123 amino acids
With B1, the “expression of the IRS protein” value in assay [1] was “attenuated”. Moreover, the “influence of inhibition of glutathione synthesis on the effect on postprandial glycemia” value in assay [2] is recorded as “does not modify”.
